The source of these data is PMC5155031.

Common to all, as to assay: dose-dependent binding with Scatchard plot analysis
For assay [1], the target named is mIgCLL3-2, CLL-derived monoclonal Igγ1 antibody of clonotype CLL3.
In assay [2] the target is mIgCLL2-2, CLL-derived monoclonal Igγ1 antibody of clonotype CLL2.
Assay [3] concerns the target mIgCLL3-1, CLL-derived monoclonal Igγ1 antibody of clonotype CLL3.
In assay [4] the target is mIgCLL2-1, CLL-derived monoclonal Igγ1 antibody of clonotype CLL2.
In assay [5] the target is mIgCLL5-1, CLL-derived monoclonal Igγ1 antibody of clonotype CLL5-1.
For assay [6], the target named is mIgCLL5-2, CLL-derived monoclonal Igγ1 antibody of clonotype CLL5-2.
The target in assay [7] is mIgCLL6-1, CLL-derived monoclonal Igγ1 antibody of clonotype CLL6-1.
In assay [8] the target is mIgCLL6-2, CLL-derived monoclonal Igγ1 antibody of clonotype CLL6-2.

The term Kd denotes the constant that tells how readily two partners part at equilibrium. Higher therefore signals lower affinity. Consider CDVWHSAYC [pCLL3-2 mimotope], for which the Kd in assay [1] came out at 5.64 nM.
In the case of CKSYSVSLC [pCLL2-2 mimotope], the Kd in assay [2] was found to be 7.57 nM.
As to CPPQSVTEC [pCLL3-1 mimotope], the Kd in assay [3] worked out at 22.1 nM.
With CNTYSVSLC [pCLL2-1 mimotope], the Kd in assay [4] stood at 10.8 nM.
The molecule CFSDDEWWC [pCLL5-1 mimotope] gave a Kd in assay [5] of 7.08 nM.
CPPFTNYEC [pCLL5-2 mimotope]: the Kd in assay [6] was found to be 7.32 nM.
On to CNQDWHKKC [pCLL6-1 mimotope], for which the Kd in assay [7] worked out at 57.5 nM.
The molecule CTTVIPERC [pCLL6-2 mimotope] gave a Kd in assay [8] of 22.7 nM.
